Data set [1] deals with Biotinylated VsCoV-a7 RBD (residues 356–556) (bat MERSr-CoV VsCoV-a7 (from Vespertilio sinensis)). The experiment in a line: BLI.
Data set [2] concerns the molecule itself. The data set is described as follows: cryo-EM structure.

Regarding “E.fus ACE2 ectodomain (residues 1–747), dimeric (receptor)”, the Kd (in general, the equilibrium constant for the complex coming apart) in data set [1] was determined as 816 nM.

B1: R.nor ACE2 ectodomain (residues 1–741), dimeric (receptor)
chain: QSLIEEKAESFLNKFNQEAEDLSYQSSLASWNYNTNITEENAQKMNEAAAKWSAFYEEQSKIAQNFSLQEIQNATIKRQLKALQQSGSSALSPDKNKQLNTILNTMSTIYSTGKVCNSMNPQECFLLEPGLDEIMATSTDYNRRLWAWEGWRAEVGKQLRPLYEEYVVLKNEMARANNYEDYGDYWRGDYEAEGVEGYNYNRNQLIEDVENTFKEIKPLYEQLHAYVRTKLMEVYPSYISPTGCLPAHLLGDMWGRFWTNLYPLTTPFLQKPNIDVTDAMVNQSWDAERIFKEAEKFFVSVGLPQMTPGFWTNSMLTEPGDDRKVVCHPTAWDLGHGDFRIKMCTKVTMDNFLTAHHEMGHIQYDMAYAKQPFLLRNGANEGFHEAVGEIMSLSAATPKHLKSIGLLPSNFQEDNETEINFLLKQALTIVGTLPFTYMLEKWRWMVFQDKIPREQWTKKWWEMKREIVGVVEPLPHDETYCDPASLFHVSNDYSFIRYYTRTIYQFQFQEALCQAAKHDGPLHKCDISNSTEAGQKLLNMLSLGNSGPWTLALENVVGSRNMDVKPLLNYFQPLFVWLKEQNRNSTVGWSTDWSPYADQSIKVRISLKSALGKNAYEWTDNEMYLFRSSVAYAMREYFSREKNQTVPFGEADVWVSDLKPRVSFNFFVTSPKNVSDIIPRSEVEEAIRMSRGRINDIFGLNDNSLEFLGIYPTLKPPYEPPVTI
notes: also called soluble dimeric R.nor ACE2; R.nor (Rodent) ACE2; source: Expi293F, purified (Ni Sepharose, Superose-6 gel filtration)
As to B1, the binding result in data set [2] is “binds”.

These data come from publication PMC11952669 (Research Square, 2025).
